Reference: the nanobody polyreactivity screen of Harvey et al. (2022)

Experiment: yeast display, Sf9 membrane polyspecificity reagent, FACS + sequencing; frameworks hold sequencing errors
In short: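 Genes from sorted yeast were amplified by colony PCR, read by MiSeq 2 × 250 sequencing and filtered on CDR length. These cells carried a synthetic nanobody library in Saccharomyces cerevisiae BJ5465 and were sorted by FACS into low and high (top ~1%) gates on anti-HA and streptavidin fluorescence. Polyreactivity is labelled according to the gate of origin.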

Row | Sequence | polyreactivity (PSR sort gate)
1 | QVQLVESGGGLVQAGGSLRLSCAASGRIFVTYVMGWYRPAPGKERELVAAISRRGGTTYYADSVKGRFTISRDNAKNTVYLQMNSLKPEDTAVYYCNVARHYAVESGYWGQGTQVTVSS | high polyreactivity
2 | QVQLVESGGGLVQAGGSLRLSCAASGRIFDVYAMGWYRQAPGKERALVAAITFSGGSTYYADSVKGRFTISRDNAKNTVYLQMNSLKPEDTAVYYCAAEYVDWFGDYDYWGQGTQVTVSS | high polyreactivity
3 | QVELVESGGGLGQAGGSLRLSCAASGLIFVLNDMGWYRLAPGKVRELVAAISYSGSSTYADSVKGRFTISRDNAKNTVYLQMNSLKPEDTAVYYCARGSKVRTRGVGYWGQGTQVTVSS | low polyreactivity
4 | QVQLEESGGCLVQAGGSLRLSCAASGRIFGSYTMGWYRQAPGKERELVAAISDSGGSTYYADSVKGRFSISRDNAKNTVYLQMNSLKPEDTAVYYCNADWSWYNYYDFDYWGQGTQVTVSS | low polyreactivity
5 | QVQLQESGGGLVQAGGGLRLSCAASGTISGPHVMGWYRQAPGEEREFVAAINVGANTYYADNVKGRFTISRDNAKNTVYLQMNSLKPEDTAVYYCAAVYYGDIGHEYWGQGTQVTVSC | low polyreactivity
6 | QVQLVESGGGLVQAGGSLRLSCAASGSIFSPYAMGWYRQAPGKERELVAAITNSGGRTYYADSVKGRFTISRDNAKNTVYLQMNSLKPEDTAVYYCNADYGKHHTDYYYWGQGTQVTVSS | low polyreactivity
7 | QVQLVESWAGLVQAGGRLRLSCAASGSSFQVYAMGWYRQAPGKERELVAAISGDGGSTYYADSVKGRFTISRDNAKNTVYLQMNSLKPEDTAVYYCAARGLFRYTDYGYWGQGTQVTVST | low polyreactivity
8 | QVQLVESGGGLVQAGGSLRLSCAASGFIFPRNAMGWYRQAPGKERELVAGITRGGSTNYADSVKGRFTISRDNAKNTVYLQMNSLKPEDTAVYYCAAKSYNYNRPYGWREYDYWGQGTQVTVSS | high polyreactivity
9 | QVQLVESGGGLVQAGGSLRLSCAASGSTLGVYVMGWYRQAPGKERELVAAISRNGGSTYYADSVKGRFTISRDNAKITVYLQMNSLKPEDTAVYYCAARTVGRKAGFDYWGQGTQVTVSS | high polyreactivity
10 | QVQLVESGGGLVQAGGSLRLICAASGSIFLQYTMGWYRQAPGKERELVAAITESDGSTYYADSVKGRFTISRDNAKNTVYLQMNSLKPEDTGVYYCAAEVVYFKYWDKYDYWGQGTQVTVSS | low polyreactivity
11 | QVQLVESGGGIVQAGGSLRISCAASGYTFKWYDMGWYRQAPGKEWELVASISWRGGSTYYADSVKGRYTISRDNAKNTVYFQMNSLKPEDTAVYYCAASLWPDYEYDYWGQGTQVTVSS | low polyreactivity
12 | QVQLVESGGGLVQAGGSLRLSCAASGFTFRGNAMGWYRQAPGKERELVATISRGGNTNYADSVKGRFTISRDNAKNTVYLQMNSLKPEDTAVYYCAAVSYIRSKVAYNYWGQGTQVTVSS | low polyreactivity
13 | QVQLVESGGGLVQAGGSLRLSCAASGSIFYYYAMGWYRQAPGKERELVASITSGGSTYYADSVKGRFTISRDNAKNTVYLQMNILKPEDTAVYYCAADVYRTWYWWFDYWGQGTQVTVSS | high polyreactivity
14 | QFQLVESGGGLVQAGGSLRLSCAASGRTFWWYAMGWYRQAPGKERELVAAITSRGTTYYADSVKGRFTISRDNAKNTVYLQMNSLKPEDTAVYYCNAVQATRYTDYDYWGQGTQVTVSS | high polyreactivity
15 | QVQLVESGGGLVQAGGSLRLSCAASGFTFYRNAMGWYRQAPGKERELVAAINYSGGSTYFADSVKGRFTISRDNAKNTVYLQMNSLKPEVTAVYYCAVPYNYYRYHYSGYDYWGQGTQVTVSS | high polyreactivity
16 | QVQLVESGGGLVQAGGSLRLSCAASGRTFSRYAMGWYRQAPGKEREFVAAISASGGSTYYADSVKGRFTISRDNAKNTVYLQMNSLKPEDTAVYYCAASGYYRYYQYRYDYWGQGTQVTVSS | high polyreactivity
17 | QVQLVESGGGLVQAGGSLRLSCAASGSTLGSNAMGWYRQAPGKERELVAAITWSGGTTYYADSVKGRFTISRDNAKNTVYLQMNSMKPEDSAVYYCNAERGSGVWWKIWGSDPDDYWGQGTQVTVSS | low polyreactivity
18 | QVQRVESGGGLFQAGGSLRLSCAASGITFRYYNMGWYRQAPGKERELVAAISSSGGSTYYADSVKGRFTISRDNAKNTVYLQMNSLKPEDTAVYYCAAESKYSTSSPRRDYWGQGTQVTVSS | high polyreactivity
19 | QVQLVESGGGLVQAGGSLRLSCAASGRIFYSNAMGWYRQAPGKERELVAAISRSGVRTYYADSVKGRFTISRDNAKNTVYLQMNSLKPEDTAVYYCAADLYWWSYYYWGQGTQVTVSS | low polyreactivity
20 | QVQLVESGGGLVQAGGSLRLSCAASGFSFKRYAMGWYRQAPGKERELVADITRGGRTNYADSVKGRFTISRDNAKNTVYLQINSLKPEDTAVYYCNAVRQKYRFEYDYWGQGTQVTVSS | high polyreactivity
21 | QVQLVESGVGLVQAGGSLRLSCAASGRTFYVYAMGWNIQAPGKERELVAAISWGRGSTYYADSVKGRFTNSRDYAKNTVYLQMNSLQPEDTAVYYCADDKTRYRLGRDYWGQGTQVTVSS | low polyreactivity
22 | QVQLVESGGGLVQAGGILRLSCAASGRIFYYNAMGGYRQAPGKERELVAAITSGGSTNYADSVKGRFTISRDNAKNTVYLQMNSLKPEDTAVYYCAADYYYYVAGVHYDYWGQGTQVTVSS | low polyreactivity

Row | Sequence | polyreactivity (PSR sort gate)
23 | QVQLVESGGGLVQAGGSLRLSCAASGFIFEHYAMGWYRQAPGKEREMVARISWRGGSTYYADSVKGRFTISRDNAKNTVYLQMNSLKPEDTAVYYCNAQEVVYFGYYPSDYWGQGTQVTVSS | low polyreactivity
24 | QVQLVESGGGLVQAGGSLRLSCAASGFTFYTYAMGWYRQAPGKERELVATISGSGGDTNYADSVKGRFTISRDNEKNTVYLQMDSLKPEDTAVYYCAAEPDATTYSDPYDYWGQGTQVTVSS | low polyreactivity
25 | QVQLVESGGGLVQAGGSLRLSCAASVRTFNLHAMGCYTQAPGKERELFAAITRSGDSTYYADSVKGSFTISRDKAKKTVYLQMKSLKPEDTAVYYCAKDNVTTPVVKVTFIPLDYWGQGTQVTVSS | low polyreactivity
26 | QVQLVESGGGLVQAGGSLRLSCAASGSIFTPYAMGWYRQAPGKERELVAAISRSGGSTYYADSVKGRFTISRDNAKITVYLQMNSLKPEDTAVYYCAVVASLSHTETPEYDYWGQGTQGTVSS | low polyreactivity
27 | QVQHVESGGGLVQAGGSLRLSCAASGRTSNIYAMGWYRQAPGKERELVAAIRTGGSTNYADSVKGRFTISRDNAKNTVYLQMNSLKPEDTAVYYCAATSRRSRPAEEYWGQGTQVTVSS | high polyreactivity
28 | QVQLVESGGGLVQAGGSLRLSCAASGSIFDGNGMGWSRQAPGKERELVASISGDGSTNYADSVKGRFTISRDNAKNTVYLQMNSLKPEDTAVYYCATDDPLSQINEQGMDYWGQGTQVTVSS | low polyreactivity
29 | QVQLVESGGGLVQAGGSLRLSCDASGRMFALYAMGWYRQAPGKERELVAAITWRGGRTRYADSVKGRFTISRDNAKNTVYLQMTSLKPEDTAVYYCNKRLFASRYDYWGQGTQVTVSS | high polyreactivity
30 | QVQLVESGGGLVQAGGSLRLICAASGITFEVYAMGRYRLAPGKEMELVAVITSVGSTNYADSVKGRFTISRDNAKNTVYLQMNSLKPEDPAVYYCAALKWTVRRFNPYTYYRYDYWGQGTQVTVSS | low polyreactivity
31 | QVQLVESGGGLVQAGGSLRLSCAASGNIFWWNAMGWYRQAPGKERELVAAITSDSTTYYADSVKGRFTISRDNAKNTVYFQMNCLKPEDTAVYYCAAYSYGGQGVDYGYWGQGTQVSVSS | low polyreactivity
32 | QVQLVEAGGGLVQAGGSLRLSCGASGRIFQSNAMGGYRLAPGKERELVAAISKSGGSTYYADSVKGRFTISRDNAKNTVYLQMNSLKPEDPAVYYCAAYPPRRMYYWGQGTQVTVSS | high polyreactivity
33 | QVQLVESGGGLVQAGGSLRLSCAASGFTFASYAMGWYRQAPGKERELVAAISGSGTSTYYADSVKGRFTISRDKAKNTVYLQMNSLKPEHTAVYYCAARRYGYRYDYWGQGTQVTVSS | high polyreactivity
34 | QVQLVESGGGLVQAGGSLRLSCAASGITFDLYAMGWFRQAPGKERELVAAISISSTSTYYADSVKGRFTISRDNAKNTVYLQMNSLKPEDTAVYYCNAVPSSKTFWFDYWGQGTQVTVSS | low polyreactivity
35 | QVQLVESGGGLVQAGGSLRLSCAASGFTFVVNAMAWYRQAPGKEREFVAAIRQSGGSTYYADSVKGRFTISRDNAKNTVYLQMNSLKPEDTAVYYCNAEDWGYGYDYWGQGTQVTVSS | low polyreactivity
36 | QVQLVESGGCLVQAGGSLRLSCASSGRTFLVYAMGWYRQAPGKERELVAAITSGGSTYYADSVKGRFTISRDNAKNTVYLQMNSLKPEDTAVYYCAAKIRGYPRRRYDYWGQGTQVTVSS | high polyreactivity
37 | QVQLVESGGGLVQAGGSLRLSCAASGIIFDINAMGWYRQAPGKERELVAAITTSVDSTYYADSVKGRFTISRDNAKNTVYLQMNSLKPEDTAVYYCAVAFVQFTQYYYWGQGSQVTVSS | low polyreactivity
38 | QVQLVESGGGLVQAGGSLRLSCAASGSTFYSNVMGWYRQAPGKERELVAAISRSGGSTYYADSVKGRFTISRDNAKNTVYLQMNSLKPEDTAVYYCAARTYRRPYYSWGQGTQVTVSS | high polyreactivity
39 | QVQLVESGGGLVQAGGSLPLSCAASGRIYGGNVMGWYRQAPGKERELVAAISKRGDSTYYADSVKGRFTISRDNAKNTVYLQMNSLKPEDTAVYYCAAVRRGDRGTDMDYWGQGTQVTVSS | high polyreactivity
40 | QVQLVESGGGLVQAGGSLRLSCAASGSIFRTNTMGWYRQAPGKERELVAAITAIGDSTYYADSVKGRFTISRDNAKNTVYLQMNSLKPEDTAVYYCAAEKVSWGYHFYSSYDYWGQGTQVTVSS | low polyreactivity
41 | QVQLVESGVGLVQAGGSLRLSCAASGFMFGGSAMGWKRQAPGKERELVAAITRSGGSTYYADSVKGRFTISRDNAKNTVYLQMNSLKPEDTAVYYCAAERQPYRTSSYNYWGQGTQVTVSS | high polyreactivity
42 | QVQLVESWGGLVQAGGSLRLSCAASGGTFRKNTMGWYRQAPGKERELVAAITRRADRTYYADSVKGRFTISRDNAKHTVYLQMNSLKPEDTAVYYCNAPPPPTKVGGYDYWGQGTQVTVSS | high polyreactivity
43 | QVQLVESGGGLVQAGGSLRLSCAASGLTFDTYAMGWYRQAPGKERELVAAISICGRTNYADSVKGRFTISRDNAKNTVYLQMNSLKPQDTAVYYCAVGAVVPGRRRRTYYYWGQGTQVTVSS | high polyreactivity
